According to publication PMC10030265, “The lipid linked oligosaccharide polymerase Wzy and its regulating co-polymerase, Wzz, from enterobacterial common antigen biosynthesis form a complex” (Open Biology, 2023):

Tests used:
[1] = target: WzyEPA-GST-distrepII (Pectobacterium atrosepticum) (UniProt Q6CZF1); test: cryo-EM structure; negative stain and single-particle cryo-EM of the WzyEPA : WzzEPA complex labelled with the IgG anti-strep tag II antibody; model at approximately 20 Å, C2 symmetry, dumbbell of two WzzEPA octamers
[2] = target: T1, WzyEPA-distrepII (Pectobacterium atrosepticum, UniProt Q6CZF1 1-463); test: quantitative immuno-dot blot; serial dilution of the co-purified complex on nitrocellulose, standard curves of each purified protein, HRP-coupled anti-His and anti-strep tag II, chemiluminescence; corrected for untagged Wzz; settings: both partners purified
T1 construct: WzyE, ECA polymerase, Pectobacterium atrosepticum SCRI 1043 (ATCC BAA-672); cloned into a proprietary vector constructed by Huanting Liu; Predicted 57 kDa; the distrepII tag is TEV protease-cleavable; source: DDM-solubilised membranes; not shown: distrepII, C-terminal, kept
T1 sequence (looked up): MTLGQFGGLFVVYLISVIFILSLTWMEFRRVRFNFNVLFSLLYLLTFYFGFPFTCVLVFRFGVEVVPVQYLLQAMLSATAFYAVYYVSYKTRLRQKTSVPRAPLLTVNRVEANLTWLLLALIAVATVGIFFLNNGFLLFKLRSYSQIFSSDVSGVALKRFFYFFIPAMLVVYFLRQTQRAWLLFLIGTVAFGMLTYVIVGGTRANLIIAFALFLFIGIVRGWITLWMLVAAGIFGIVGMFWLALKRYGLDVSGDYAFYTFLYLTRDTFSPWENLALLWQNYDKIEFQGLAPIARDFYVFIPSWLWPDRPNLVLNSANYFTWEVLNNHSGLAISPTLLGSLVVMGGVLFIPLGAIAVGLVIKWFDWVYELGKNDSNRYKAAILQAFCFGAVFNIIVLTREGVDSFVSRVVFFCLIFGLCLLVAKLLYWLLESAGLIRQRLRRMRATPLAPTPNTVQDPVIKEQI

[3] = target: the molecule itself; test: cryo-EM structure; negative stain and single-particle cryo-EM of the WzyEPA : WzzEPA complex labelled with the IgG anti-strep tag II antibody; model at approximately 20 Å, C2 symmetry, dumbbell of two WzzEPA octamers
[4] = target: the molecule itself; test: cryo-EM structure; TEV-cleaved, SEC-purified WzzEPA : WzyEPA sample at 5 mg/ml in DDM; Titan Krios; C4 symmetry; 3.6 Å; only WzzEPA seen in the map

His6-WzzEPA (from UniProt Q6CZE3 1-348) (natural protein)
stoichiometry N (WzzEPA per WzyEPA) [1]: 8

B1: His6-WzzEPA (natural protein, Pectobacterium atrosepticum, UniProt Q6CZE3 1-348, looked up)
chain: MKSENLSTGNALIDNELDIRGLFRLLWRGKVWPIAIGLLFAVVALGYSYLVKQEWGATSITDKPTVNMLGGYYSQQQFLRNLDARSFSSPQPEQPSISAGAYDEFIMQLAAYDTRRDFWLQTDYYKQRLEGDEKADAALLDELVNNIQFTARDDGKKTNDSVKLVAETSSDSNTLLRQYVVFASQRAANHLNEEIKGAWAARTIFMKSQIKRQEAVAKAIYDREVRSVELALKIAQQQGISRSQTDTPADEIPASEMFLLGRPMLQARLETLQTSGPHYELDYDQNRAMLATLNVGPTLEASFQTYRYLRTPEEPVKRDSPRRAFLMVMWGAIGVLVGAGVALARRLR
notes: WzzE, polysaccharide co-polymerase of enterobacterial common antigen biosynthesis, Pectobacterium atrosepticum SCRI 1043 (ATCC BAA-672); cloned into pEHisTEV; Predicted 42 kDa; His6 tag is TEV protease-cleavable; The methods say that Wzz ran as a double band and that the lower band was not seen by the anti-His antibody (partly untagged); Isolated Wzz may have various oligomeric states; octamer in …
stoichiometry N [2]: 9.6 ± 1.8 His6-WzzEPA : WzyEPA-distrepII (molar ratio)
stoichiometry N [3]: 8 subunits in the oligomer

B2: WzzEPA (TEV protease cleaved, affinity tag removed) (natural protein, Pectobacterium atrosepticum, UniProt Q6CZE3 1-348, looked up)
chain: B1 chain
notes: WzzE, Pectobacterium atrosepticum SCRI 1043; residues I39-V337 modelled, residues 1-39 and 338-348 not visualized; also called full length WzzEPA; source: E. coli C43(DE3), co-expressed with WzyEPA; not shown: His6, N-terminal, cleaved
stoichiometry N [4]: 8 subunits in the oligomer
